Experimental data reported in patent publication US20190177422A1 (SORRENTO THERAPEUTICS, published 2019).

T1: OX40 on OX40+ HEK293-NFkB-luciferase reporter stable cells (UniProt P43489 29-277)
T1 sequence (looked up): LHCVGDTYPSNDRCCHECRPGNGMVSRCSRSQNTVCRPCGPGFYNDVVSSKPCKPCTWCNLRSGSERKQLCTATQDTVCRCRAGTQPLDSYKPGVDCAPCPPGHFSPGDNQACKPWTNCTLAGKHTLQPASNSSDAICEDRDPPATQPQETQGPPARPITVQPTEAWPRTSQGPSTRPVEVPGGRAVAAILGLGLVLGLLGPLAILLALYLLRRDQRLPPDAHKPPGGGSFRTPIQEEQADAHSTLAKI


biological target: T1, OX40 on OX40+ HEK293-NFkB-luciferase …; assay: cell-based or functional assay

Row | Binder | luciferase activity (RLUs) of OX40+ HEK293-NFkB-luciferase reporter cells, ~6 h stimulation, antibody at 20 µg/ml
1 | OX4D7 (antibody, V domains shown) VH: QVQLVQSGAEVKKPGASVKVSCKASGYTFTSYYMHWVRQAPGQGLEWMGIINPSGGSTSYAQKFQGRVTMTTDTSTSTAYMELRSLRSDDTAVYYCARDPYSSSWYGAEYFQHWGQGTLVTVSS VL: QSVLTQPRSVSGSPGQSVTISCTGTSSDGGDYNYVSWYQQHPGQAPKLLIYEVSNRPSGVSNRFSGSKSGNTASLTISGLQAEDEADYYCSSYTSSSTLVVFGGGTKLTVL | > 50 % of signal observed with purified rhOX40L+anti-His
2 | OX1B2 (antibody, V domains shown) VH: QVQLVQSGAEVKKPGASVKVSCKASGYTFTSYYMHWVRQAPGQGLEWMGIINPSGGSTSYAQKFQGRVTMTRDTSTSTVYMELSSLRSEDTAVYYCARDYYDSSGYSDYGMDVWGQGTTVTVSS VL: DIVMTQSPSSLSASVGDRVTITCRASQSISSYLNWYQQKPGKAPKLLIYAASSLQSGVPSRFSGSGSGTDFTLTISSLQPEDFAIYYCQQNYNTRQVTFGQGTRLEIK | > 50 % of signal observed with purified rhOX40L+anti-His
3 | OX1C4 (antibody, V domains shown) VH: EVQLVESGAEVKKPGASVKVSCKTSGYTFTGYYLHWVRQAPGQGLEWMGIINPGDGSTRNAQKFEGRVTMTRDTSTSTVYMELSSLSPEDTAVYYCARDLEYIGSGSLSWFDPWGQGTLVTVSS VL: LPVLTQPASVSGSPGQSITISCSGTSSDFLTYDLVSWYKQQPGKAPKLMIYDVNKRPSGVSDRFSGSKSGNTASLTISGLQAADEADYYCSSYTSSSTPYVFGTGTKVTVL | > 50 % of signal observed with purified rhOX40L+anti-His
4 | OX1D9 (antibody, V domains shown) VH: QVQLVQSGAEVKKPGASVKVSCKASGYTFTSYGISWVRQALGQRLEWLGWINAGDGETKYSPKFQGRVTITRDTSASTAYMDLSGLTSEDTAVYYCARDFLSTMDYWGQGTLVTVSS VL: DVVMTQSPSSLSASVGDRVTITCQASQDISNYLNWYQQKPGKAPKLLIYDASNLETGVPSRFSGGGSGTDFTFTISSLQPEDIATYYCQQFDNLPYTFGQGTKVEIK | > 50 % of signal observed with purified rhOX40L+anti-His
